Measurements taken from the DeepSol protein solubility set.

assay: soluble on expression in E. coli; label from the status in PepcDB or PDB records

| Sequence | soluble on expression in E. coli |
| --- | --- |
| MGSDKIHHHHHHMTKLPATSDIYISFFMFTTNLQPDNLDYRRIVVAHIKKLQRFGYSGFEFPIAPGLPENYAQDLENYTNLRHYLDSEGLENVKISTNVGATRTFDPSSNYPEQRQEALEYLKSRVDITAALGGEIMMGPIVIPYGVFPTTDFNEPIWSDELQEHLKVRYANAQPILDKLGEYAEIKKVKLAIEPITHWETPGPNKLSQLIEFLKGVKSKQVGVVIDSAHEILDGEGPEIFKTQVEYLAQQGRLHYVQVSPPDRGALHTSWLPWKSFLTPIVKVYDGPIAVEIFNAIPAFTNSLRLTRRKFWIPDEDPPNQYPNAYDIADEAIKVTRKELKKIGSK | not soluble |
| MGSDKIHHHHHHMTKPNQDAIGMLPFKQSTVSLQVQEHYKTPMLLLGYQQRWCADLTPVKVCEKSRRIGLSWGEAADSALFAASQKGMDTWYIGYNKDMAQEFIRDCADWAKAYGLAAGEIEETEEIFKEGDEEKAILAYVIRFSSGWRITALSSRPSNLRGKQGRVIIDEAAFHDDLPELLKAAMALLMWGGQVHIISTHNGVDNPFNELVNEVRAGKKPYSLHTITFDDAIKDGLYQRICLRLGRTWSQQAQDEWVAEIRASYGDAAAEELDCIPRNSGGAWLTRALIESRMNADTPRLCLEKKDEFALQPEPIRNREIAQWCDENLYPVLTALPEKQRHFLGMDFARSGDLSVIAIGQEQSDLCLKNVLLLELSNIPFAQQEQIYFYIGDRLPRFSKAANDARGNGQSLSEKAFDRYGAIVEGVMLSESWYREHTAPFKAALEDDTLFDIVKNDDVLADLRAFQVVKGIPRLPDKRTVGQNKTKRHGDAAIAYLLLHYAYRTDQSFEINFRSTGTRTTTQLFNNNSFERVRTGRGFGSIRGGNDFRGY | not soluble |
| MGSDKIHHHHHHMTLLDKDLVSIQEVRTLVRRSKVAQEKLSKMSQEQIDKIVKAVVDAAFNNATKLAKMANEETGFGKWEDKVIKNTFASMGVYETLKNTKTIGIIGEDKEANTIDIATPVGVVAGLIPSTNPTSTVIYKTIISLKAGNTIVFSPHPNAKNCILETVNIISDAAIKAGAPEDSILCITNPSIVGTNELMKHKDTNLILATGGEAMVRAAYSSGTPAIGVGPGNGPAFIDKSANVKLAIKRIIDSKTFDNGVICASEQSIVIEKSMEETVLKELKNQGAYVLNEEESERLAKFILRANGTMNPQIVGKSVEVIANLADLTNVPKNTKVLVARENKVGHNVAYSREKLTPILAFYVEENVEAIMNRCREILLNEGAGHTFSMHVNDEELVKRFALNMPVSRILVNTPSALGGIGASTNLVPALTLGCGAIGGSSTSNNIGPLDLINVKRVAYGIKEIEELGRDKSQVEKSMFDSMDKEELINLLVQKLFKELA | not soluble |
| MGSDKIHHHHHHMTLLIVGATGTLGRQVARRAIDEGYKVRCLVRSSKKAAFLKEWGAELVPGNLRYPDTLAAALVGVTQVIDASTSRPTDSLSIKQVDWEGKVALIQAAKAAGVERFIFFSILDADKYPEVPLMEIKRCTELFLAESGLNYTILRLAGFMQGLIGQYGIPILEGQPVWVTGNSSPIAYMDTQDIAKFAIRALSVPETENQAFPVVGTRAWSAEEIINLCERLSGKDARVTRMPISLLRAVRGLMRSFQWGWNVADRLAFTEVLASGKQLNASMDEVYTVFGLDPQQTTTLESYLQEYFSRIMKKLKEVDYQKNKNKKQKPKKTPFKQSSKANSQ | not soluble |
| MGSDKIHHHHHHMTLLLKENDVINLLDYKQIYGALVNAFLLFENKFAINLERSRISFHGTTLTFQAAGMENYIGYKTFISGNHLTFLYDTSGNLLSIIESDRLSQARTAVLSILATDYVYGDFSSLGVIGLGKYGLAIVEIANQLKKGIKINVFTPSQQRMEKALSILRGEGIDVSPKDSIKRVCEESEVVTTITKAKDPFLKLEYVNNKRIHINAMGSNIPEKIEIFPEVIKASNLIVVEELEHEFKRIRRVSHRKRMGMLDMSKITLLSWILSRKINVQKEGITIFKSVGIGLEDLAVGKLIYEKALSKGLGTEIEVKGVWYRESEKK | not soluble |
| MGSDKIHHHHHHMTLNIDQESCIKCGKCVRVCPSDIFTQERAGETIGLVRVESCIVCGHCVDVCPTGSVSHSEFPPEKTHTIDYSQMPTPEQVMLLIKSRRSNRTLTSRPVPKEMLDKIVEAAHSAPTATNSQSLSFTVVTDPRKLRQVSDYTIGVFDSLAKLLLNPVVKCVVKPFMKDVYKYVPVFNRLKEEHKAGKDPILRKATALLLIHTPKSNRFGSEDANLAYQNASLMAQSLGVSQIYMGFVLTAIRQEGKDTLAKTLGIDGKIQAIMALGIPAFKYPKYTDRKEIVKNYIE | not soluble |
| MGSDKIHHHHHHMTLSKERKLHIPFERDGDLMDIGSYPHWLQDVVGTVRAARDRVRFHEVFSLMRDGRLAPRQLAAFFVNGWPVVEQFPKYMSMNLLKANGTNSSGEEKARRYLIRNIRVELNHVEHWVNWAEASGVPRRQLTDGDSPPAALALSHWCWKSSSADTLAASIAATNYAIEGVTGEWSADLCRSDVYEMGFPEAVRGRAMRWLRLHSSYDDKHPWEALDIVATILGQSPSTEQVRDVAAGIERSFRYFEMSLSCCLDA | not soluble |
| MGSDKIHHHHHHMTLTKEQLLNRGIEVIDKAENEGITLRVIGGAAIALIAKKGSELYPRVYKDIDYFGLSSQSTKISRFLEGIGLIPNKRFNALHGHIRLMFFDPIINSTVDVFLDEFVMCHKLVLKDRLRIMKYTIPTSDLFLTKMQIIQLTENDKKDIAALLYDVELGERDDEKTMNYNYIAKILSEDWGFYKTYTINHDRVLEFMKNDKNREIIEPKLVKLREIIEKHPKSIKWKMRAKIGEKVKWYEEPEEVNTNFTQQ | not soluble |
| MGSDKIHHHHHHMTMDKLLTVCGLSLEVARTGQQVVKSVSFDLAPGEIFGIVGESGSGKTLATRALISLLPPTIKVADGSVSYKGRDVLKMKENELRHLRGAEIGVVFQEPMTSLNPSMTIGRQLEEGLILHTKASAQERRSLILDMLKRVGIRDPEGALSSYPHEFSGGMRQRIMLASVMLLKPALLIADEPTTALDAVIQRDVMELMVELTRAEGTAILLISHDLPMVARYTSRIVVMEKGAIVEKGRTEDLLKAPQHPYTKKLLSSLPFRGRPRQIDLTSVPMISARDIIVDYAGRKSLFRKNKPKRALHGVSIDIHEGEVVALVGGSGSGKTTLGRTIAGLVTESEGRIQFQGRPRTENWTDYRLNCQMVFQDPYSSLDPRMTIEALVEEALRPVPGLDGKAKRKRTLETLEEVGLGVDYAGRYPHELSGGQRQRVAIARAIARRPRFLIADEPVSALDVTVRAQVLDLFSDLQKRYGFSCLFISHDLGVVEQVADRVVVMQDGRIIEEGDRDTIFDSPKEAYTRRLLSAIPALDQNEKGGVTLKWRLEN | not soluble |
| MGSDKIHHHHHHMTNETTTSILEYADTHLKFSMEDLFAYLHKKIGINKSSLAWYLFKLVNENKLVRTGRGMYARILKPSFAPQPAEEVKEVYDLLTTHFPFAKFCIYQGEIIAPLQHHLSPNRIIYVETDRGTAETVFHLLKDDYQDVYLRPNKEMIYRYVDMDSRVFIVKNLVSEAPLQHISGVPIPTLEKLLVDILRDVDFFYLQGSESERIIENAFNLYAINRSRLFRYAGRRKVKEELSTILENLNIV | not soluble |
| MGSDKIHHHHHHMTNGVLWRSSLLSDYWFSHLPAALQDSVLHAARQVRKTPGKMLFEKGAAPCGLYALLEGDVRIGGAHFQRLGPRLEPIRRPYWFGEVSLFDEMPRRFDVCSLEQTIFLQVPHSFLVSLLDRHPEYWRHFAALLSQKLGLPLQNPEKLQLLPPRSRVASRLLLLSEGYGPLSHARRLITLDEVTSLQDLSHSALLEVLEDLHERKVVRLGIGQLEVFDVDKLRKIANFSRARAVC | not soluble |
| MGSDKIHHHHHHMTNQIKIAVIGVGRWGVHLLRNFLAHPQVDVVAVVDPHPERLAAIKQQFNLDENVVLTTQWEDLKKVPGLTGVAIATPATTHYALIKDSLQQGYHVLAEKPLTLDPAECRELCQLAEQHHLILMVDHTYLFHPAVEQGQTVVQAGKLGDLRYGYATRTHLGPVRQDVDALWDLAIHDIAIFNAWLGQIPVKVQATGTVWLQGAGEQGSREAEGKKDTNFPLPQGLADLVWLTLTYPDGFQAYIHLCWLNPDKQRRLGIVGSLGSLIFDEMSRSSPLTLLHGEFEQQGNHFIPVNQKQVVLELEPGEPLGRVCSCFVDSILNNTPSEVSSGWVGTQLVEILAALTVSLEQGGQPVFLNNCSQV | not soluble |
| MGSDKIHHHHHHMTNTETIQSLIDSGEGYNVEFKVRVPSKVRELTEEICAFANADGGYLLIGVDDNGQIIGTGLENDKRSAIQGSISEISPALHCDMYAVNIEDKTVWVIDVPSGKDKPYIFSGSIFVREGANSQKLRTVEEMRSFFQECNKIFFDAIPCSWFNIYTDADEQAIKDFRTEAKLSPSTANKQIFENLELFTDNGVAKNGTAMFFGKQPERKFPHAVTRCVLFKGTTKVYIIDDKTFGGPLYQQYLQAMAWLESKLQVAYKIEGAGPREEIWEIPLTVFKEAIINALSHRDYYEQGATITIEMFDDRVEVSNPGGLLPIVAKDFGHKSMTRNPLIFGLFTRMHLVERVASGIPRMQEAMKEANLPEPDFHTDGMFTVIFKRGISIKNDTVNDTVNDTVNDTVNSKEKEVLKIIQKYPGLNSSKIAELIKKSIPTAKRHLNSLVKSGLIEFRGAQKTGGYYIINQQ | not soluble |
| MGSDKIHHHHHHMTPIPFYVPVGNECELFETAWQRRLPLLLKGPTGCGKTRFVTHMAARLQRPLFTVSCHDDLTAADLTGRFLIKGGETVWVDGPLTRAIREGGICYLDEIVEARKDVTVVLHPLTDDRRMLPLERTNEILHAPDTFMLVVSYNPGYQNILKSLKPSTRQRFVALSFNFPPPEIELEIIASESGLARDRCTALVNLATRLRLLKDVDLEESVSTRLLVYCATLMAAGLDPYQAAQAALVEPLSDETEVQQGLLELIHATFG | not soluble |
| MGSDKIHHHHHHMTQPQMIHPGETPEQHAAFQARIARGEKIEPGDWMPAEYRRQLIRMISQHAHSEVVGMLPEGEWITRAPTLKRKTILIAKVQDEAGHGQYLYHAAETLGVTREEMLDALLSGKAKYSSIFNYPSLTWADVGMIGWLVDGAAIKNQTMLAGCSYGPYSRAMVRICSEETFHHKQGKEMIVAYAQGTPEQKQMAQDALNRWWWPALMMLGPHDADSPNTGALVQWGIKLKTNDEVRQEFINEHVPELLEAGLTIPDPDLHQDEQGNWIHGPINWDEFWAVVKGQQGLHRERLGTRQQAHEEGAWVREAVQAYAARQLGQAAD | not soluble |
| MGSDKIHHHHHHMTQRQERLFVLEASSGGRLFSVNPDGSDKKVIVTGCRIPDGVAIDVLAGHVYWTNMGLPPENDGSIERVDLDGGNRTTIVPSGVTHTPKQLYLEAVGRKLYWGDREGMRVMRCDLDGSHVETLVQTGQGEDDRRDETRWCVGVAVDPAGGHLYWTQKGPSDAGLGKILRAGISLPAGESAAERGDIEVLFEGLPEPIDLELDLAERMLYWTDRGDPPRGNSVNRSPMHPPDAQRTPEILLTHLMEAIGIALDPDGGRMYVTDLAGNVYAAGLDGSNRREILVAQGNLTGIAHAVLPTGTSF | not soluble |
| MGSDKIHHHHHHMTQSDFFSLDGISKRFGVVQALDNVSIAFRPGEVLALVGENGAGKSTMMRILEGVSGPDTGTVRHGSTPIVFGEPRDSHRAGIRVIHQEPEIVPNLTVAENIFVGELPRLAGVLLDWRKLEEQTDRVLATFGMQQDMRPRQLCGTLGPAQRQMIEIMRAIRAGGRLIAFDEPTSSLTDDEARRLFSVVRRLREKGTSIIYISHRLNEIIDLADRIVVLRDGRLVDDSPAAGASEQTIAKLMVGRNIDDLFTRETWRSGEQLLDVAGLTTDRVNDVSLRVRRGEVLGIAGLMGAGRSELAKAIVGYDRRIAGTIAMNGVPVLPNSPHAAIVAGIGFAPEDRKHEALLLFRSILDNAALCVPDKTSSFGFFNRRKAMEIVSPLAAKMSIKAPNLDEQVSKLSGGNQQKVVLARWLARQPMLLILDEPTRGIDIGAKAEIYRLIDELAASGIGIILISSEMPELIGLADRVLVMAGGRITAELARPDIDEATILKHAMPQSASSPGDYIQ | not soluble |
